Data: US20150309050A1
No end group written: not given here.

Assays:
VT028 antiserum [1] = test: RIA standard curve, tracer iodinated PACAP(31-38); 54 pg cold standard (so in the source); period in the CPM read as thousands mark
VT026 antiserum [2] = test: RIA standard curve, tracer iodinated PACAP(31-38); 4 pg cold standard
VT028 antiserum [3] = test: as above
VT027 antiserum [4] = test: as above
VT026 antiserum [5] = test: RIA standard curve, tracer iodinated PACAP(31-38); 128 pg cold standard
VT028 antiserum [6] = test: as above
VT028 antiserum [7] = test: RIA standard curve, tracer iodinated PACAP(31-38); 128 pg cold standard; period in the CPM read as thousands mark
VT026 antiserum [8] = test: RIA standard curve, tracer iodinated PACAP(31-38); 32 pg cold standard
VT028 antiserum [9] = test: as above
VT027 antiserum [10] = test: as above
VT027 antiserum [11] = test: competition RIA, tracer iodinated PACAP(31-38); low end tied to VT027 by Table 6 (41 pg)
VT026 antiserum [12] = test: RIA standard curve, tracer iodinated PACAP(31-38); 5 pg cold standard (so in the source)
VT028 antiserum [13] = test: RIA standard curve, tracer iodinated PACAP(31-38); 16 pg cold standard
VT028 antiserum [14] = test: RIA standard curve, tracer iodinated PACAP(31-38); 54 pg cold standard (so in the source)
VT028 antiserum [15] = test: RIA standard curve, tracer iodinated PACAP(31-38); 16 pg cold standard; period in the CPM read as thousands mark
VT028 antiserum [16] = test: RIA standard curve, tracer iodinated PACAP(31-38); 2 pg cold standard; period in the CPM read as thousands mark
VT028 antiserum [17] = test: RIA standard curve, tracer iodinated PACAP(31-38); 2.040 pg cold standard as printed (read as 2,040)
VT026 antiserum [18] = test: RIA standard curve, tracer iodinated PACAP(31-38); 2 pg cold standard
VT028 antiserum [19] = test: as above
VT027 antiserum [20] = test: as above
VT028 antiserum [21] = test: RIA standard curve, tracer iodinated PACAP(31-38); 255 pg cold standard; period in the CPM read as thousands mark
VT026 antiserum [22] = test: competition RIA, tracer iodinated PACAP(31-38); high end tied to VT026 by Table 5 (20.3 fmol)
VT028 antiserum [23] = test: RIA standard curve, tracer iodinated PACAP(31-38); 1.020 pg cold standard as printed (read as 1,020); period in the CPM read as thousands mark
VT028 antiserum [24] = test: competition RIA, antiserum 1:200K, tracer iodinated PACAP(31-38)
VT027 antiserum [25] = test: as above
[26] = target: PACAP38 RIA antiserum (Peninsula Laboratories); test: competition RIA, double antibody immunoprecipitation, antiserum 1:30,000
VT026 antiserum [27] = test: RIA standard curve, tracer iodinated PACAP(31-38); 510 pg cold standard
VT028 antiserum [28] = test: as above
VT027 antiserum [29] = test: as above
VT027 antiserum [30] = test: RIA standard curve, tracer iodinated PACAP(31-38); 125 pg cold standard (so in the source)
VT026 antiserum [31] = test: RIA standard curve, tracer iodinated PACAP(31-38); 2,040 pg cold standard
VT027 antiserum [32] = test: as above
VT026 antiserum [33] = test: RIA standard curve, tracer iodinated PACAP(31-38); 84 pg cold standard (so in the source)
VT027 antiserum [34] = test: as above
VT028 antiserum [35] = test: RIA standard curve, tracer iodinated PACAP(31-38); 1.020 pg cold standard as printed (read as 1,020)
VT026 antiserum [36] = test: RIA standard curve, tracer iodinated PACAP(31-38); 1 pg cold standard
VT028 antiserum [37] = test: as above
VT027 antiserum [38] = test: as above
VT028 antiserum [39] = test: RIA standard curve, tracer iodinated PACAP(31-38); 1 pg cold standard; period in the CPM read as thousands mark
VT026 antiserum [40] = test: RIA standard curve, tracer iodinated PACAP(31-38); 255 pg cold standard
VT028 antiserum [41] = test: as above
VT027 antiserum [42] = test: as above
VT028 antiserum [43] = test: RIA standard curve, tracer iodinated PACAP(31-38); 4 pg cold standard; period in the CPM read as thousands mark
VT026 antiserum [44] = test: RIA standard curve, tracer iodinated PACAP(31-38); 18 pg cold standard (so in the source)
VT027 antiserum [45] = test: as above
VT028 antiserum [46] = test: RIA standard curve, tracer iodinated PACAP(31-38); 32 pg cold standard; period in the CPM read as thousands mark
VT028 antiserum [47] = test: RIA standard curve, tracer iodinated PACAP(31-38); 8 pg cold standard; period in the CPM read as thousands mark
VT028 antiserum [48] = test: RIA standard curve, tracer iodinated PACAP(31-38); 8 pg cold standard
VT027 antiserum [49] = test: RIA standard curve, tracer iodinated PACAP(31-38); 3 pg cold standard (so in the source)
VT026 antiserum [50] = test: RIA standard curve, tracer iodinated PACAP(31-38); 1,020 pg cold standard
VT027 antiserum [51] = test: as above
VT026 antiserum [52] = test: competition RIA, antiserum 1:100K, tracer iodinated PACAP(31-38)
VT028 antiserum [53] = test: RIA standard curve, tracer iodinated PACAP(31-38); 510 pg cold standard; period in the CPM read as thousands mark

Which CPM (VT028 antiserum [1]) does the source give for HSDGIFTDSYSRYRKQMAVKKYLAAVLGKRYKQRVKNK (peptide, UniProt P18509 132-169, looked up, not fully specified; ends and bridges not checked) [PACAP38] here?
The CPM was 7010 cpm.

And the BINDING (VT026 antiserum [2])?
Its BINDING is 0.957.

And the CPM (VT026 antiserum [2])?
The CPM was 5510 cpm.

What about the BINDING (VT028 antiserum [3]) of the same binder?
Its BINDING is 0.946.

What about the BINDING (VT027 antiserum [4]) of the same binder?
Its BINDING is 0.589.

What about the CPM (VT027 antiserum [4]) of the same binder?
The CPM was 7280 cpm.

What about the BINDING (VT026 antiserum [5]) of the same binder?
Its BINDING is 0.427.

And the CPM (VT026 antiserum [5])?
The CPM was 2800 cpm.

And the BINDING (VT028 antiserum [6])?
Its BINDING is 0.367.

And the CPM (VT028 antiserum [7])?
The CPM was 4350 cpm.

What about the BINDING (VT026 antiserum [8]) of the same binder?
Its BINDING is 0.728.

And the CPM (VT026 antiserum [8])?
Its CPM is 4250 cpm.

And the BINDING (VT028 antiserum [9])?
Its BINDING is 0.77.

What about the BINDING (VT027 antiserum [10]) of the same binder?
Its BINDING is 0.584.

What about the CPM (VT027 antiserum [10]) of the same binder?
The CPM was 4860 cpm.

What about the assay midpoint (VT027 antiserum [11]) of the same binder?
Its assay midpoint is 9 fmol.

And the BINDING (VT026 antiserum [12])?
Its BINDING is 0.945.

What about the CPM (VT026 antiserum [12]) of the same binder?
Its CPM is 5450 cpm.

And the BINDING (VT028 antiserum [13])?
The BINDING was 0.88.

And the BINDING (VT028 antiserum [14])?
The BINDING was 0.606.

And the CPM (VT028 antiserum [15])?
Its CPM is 10100 cpm.

And the CPM (VT028 antiserum [16])?
Its CPM is 11200 cpm.

What about the BINDING (VT028 antiserum [17]) of the same binder?
The BINDING was 0.0389.

And the CPM (VT028 antiserum [17])?
The CPM was 684 cpm.

And the BINDING (VT026 antiserum [18])?
Its BINDING is 0.961.

And the CPM (VT026 antiserum [18])?
Its CPM is 5540 cpm.

And the BINDING (VT028 antiserum [19])?
Its BINDING is 0.981.

What about the BINDING (VT027 antiserum [20]) of the same binder?
Its BINDING is 0.931.

And the CPM (VT027 antiserum [20])?
The CPM was 7620 cpm.

What about the CPM (VT028 antiserum [21]) of the same binder?
Its CPM is 2760 cpm.

What about the assay midpoint (VT026 antiserum [22]) of the same binder?
The assay midpoint was 20 fmol.

What about the CPM (VT028 antiserum [23]) of the same binder?
Its CPM is 1020 cpm.

And the DETECTION LIMIT (VT028 antiserum [24])?
The DETECTION LIMIT was 6.69 pg.

What about the MIDPOINT [fmol] (VT028 antiserum [24]) of the same binder?
The MIDPOINT [fmol] was 19.3 fmol.

What about the MIDPOINT [pg] (VT028 antiserum [24]) of the same binder?
The MIDPOINT [pg] was 67 pg.

What about the DETECTION LIMIT (VT027 antiserum [25]) of the same binder?
The DETECTION LIMIT was 2.19 pg.

What about the MIDPOINT [fmol] (VT027 antiserum [25]) of the same binder?
Its MIDPOINT [fmol] is 92 fmol.

What about the MIDPOINT [pg] (VT027 antiserum [25]) of the same binder?
Its MIDPOINT [pg] is 41 pg.

What about the assay midpoint [26] of the same binder?
The assay midpoint was 3.5 fmol.

What about the BINDING (VT026 antiserum [27]) of the same binder?
Its BINDING is 0.142.

What about the CPM (VT026 antiserum [27]) of the same binder?
Its CPM is 1030 cpm.

And the BINDING (VT028 antiserum [28])?
The BINDING was 0.133.

What about the BINDING (VT027 antiserum [29]) of the same binder?
Its BINDING is 0.0789.

What about the CPM (VT027 antiserum [29]) of the same binder?
The CPM was 875 cpm.

And the BINDING (VT027 antiserum [30])?
Its BINDING is 0.245.

And the CPM (VT027 antiserum [30])?
The CPM was 2190 cpm.

What about the BINDING (VT026 antiserum [31]) of the same binder?
Its BINDING is 0.0479.

What about the CPM (VT026 antiserum [31]) of the same binder?
The CPM was 515 cpm.

What about the BINDING (VT027 antiserum [32]) of the same binder?
Its BINDING is 0.0302.

And the CPM (VT027 antiserum [32])?
Its CPM is 490 cpm.

What about the BINDING (VT026 antiserum [33]) of the same binder?
Its BINDING is 0.502.

What about the CPM (VT026 antiserum [33]) of the same binder?
Its CPM is 3450 cpm.

And the BINDING (VT027 antiserum [34])?
Its BINDING is 0.411.

What about the CPM (VT027 antiserum [34]) of the same binder?
Its CPM is 3500 cpm.

And the BINDING (VT028 antiserum [35])?
The BINDING was 0.0685.

What about the BINDING (VT026 antiserum [36]) of the same binder?
Its BINDING is 0.973.

What about the CPM (VT026 antiserum [36]) of the same binder?
The CPM was 5600 cpm.

What about the BINDING (VT028 antiserum [37]) of the same binder?
Its BINDING is 0.993.

And the BINDING (VT027 antiserum [38])?
Its BINDING is 0.978.

And the CPM (VT027 antiserum [38])?
Its CPM is 7960 cpm.

What about the CPM (VT028 antiserum [39]) of the same binder?
The CPM was 11300 cpm.

What about the BINDING (VT026 antiserum [40]) of the same binder?
Its BINDING is 0.271.

And the CPM (VT026 antiserum [40])?
The CPM was 1740 cpm.

And the BINDING (VT028 antiserum [41])?
Its BINDING is 0.227.

And the BINDING (VT027 antiserum [42])?
The BINDING was 0.147.

And the CPM (VT027 antiserum [42])?
Its CPM is 1140 cpm.

What about the CPM (VT028 antiserum [43]) of the same binder?
The CPM was 10800 cpm.

What about the BINDING (VT026 antiserum [44]) of the same binder?
The BINDING was 0.859.

What about the CPM (VT026 antiserum [44]) of the same binder?
Its CPM is 4980 cpm.

And the BINDING (VT027 antiserum [45])?
Its BINDING is 0.715.

And the CPM (VT027 antiserum [45])?
Its CPM is 5900 cpm.

And the CPM (VT028 antiserum [46])?
Its CPM is 8840 cpm.

What about the CPM (VT028 antiserum [47]) of the same binder?
The CPM was 10400 cpm.

And the BINDING (VT028 antiserum [48])?
The BINDING was 0.914.

And the BINDING (VT027 antiserum [49])?
The BINDING was 0.835.

And the CPM (VT027 antiserum [49])?
The CPM was 6850 cpm.

What about the BINDING (VT026 antiserum [50]) of the same binder?
Its BINDING is 0.0598.

What about the CPM (VT026 antiserum [50]) of the same binder?
The CPM was 800 cpm.

And the BINDING (VT027 antiserum [51])?
Its BINDING is 0.0512.

And the CPM (VT027 antiserum [51])?
Its CPM is 858 cpm.

What about the DETECTION LIMIT (VT026 antiserum [52]) of the same binder?
Its DETECTION LIMIT is 5.38 pg.

What about the MIDPOINT [fmol] (VT026 antiserum [52]) of the same binder?
The MIDPOINT [fmol] was 20.3 fmol.

What about the MIDPOINT [pg] (VT026 antiserum [52]) of the same binder?
Its MIDPOINT [pg] is 92 pg.

What about the CPM (VT028 antiserum [53]) of the same binder?
The CPM was 1730 cpm.
